From patent US20240316101

Tests used:
[1] = test system: PEG12-Tregitope peptide (Peg12-Val-Cit-Tregitope-Nle)
[2] = test system: PEG2-Tregitope peptide (KKKK-Peg2-Val-Cit-Tregitope-Nle)

For “Recombinant human Cathepsin B (catalog 953-CY of R&D Systems)”, the “cleavage of the Val-Cit site, evaluated by mass spec” value [1] was “For the PEG12 product, successful cleavage was demonstrated” and the “cleavage of the Val-Cit site, evaluated by mass spec” value [2] was “the PEG2 peptide did not have successful cleavage”.
